The target of this test is anti-VEEV human IgG1 antibody F5 with the loss of function Fc mutations L234A and L235A (hF5-LALA) (human). The experiment in a line: ELISA.

Turning to “mouse complement component C1q from normal mouse serum (from UniProt P98086;P14106;Q02105) (complex)”, the fold reduction in binding against hF5-WT at 2.8 µg/ml amounted to 5.1 fold.

(Values after PMC10766394.)
